This note sets out measurements from patent US20210364527A1.

The experiment addresses polypeptide with a terminal leucine residue (rest of sequence not given). Kind of experiment: single-molecule dwell time analysis; panel Leu; filtered 0.00s<=dur<=20.00s and magnitude above baseline > 15.0.

Synechococcus elongatus ClpS2: the mean pulse duration (dashed line of the distribution) is 0.35 s.
